The text below walks through data of patent US20130171677A1 (BOARD OF SUPERVISORS OF THE UNIVERSITY OF LOUISIANA SYSTEM, published 2013).

This data set concerns the molecule itself. Nature of the data set: size exclusion chromatography of purified recombinant TeCpcS (complex 53.0 kDa against ~24.0 kDa calculated for HT-TeCpcS). The protocol: In order to determine the molecular mass of TeCpcS in its native state, the purified, recombinant TeCpcS was subjected to size exclusion chromatography. The molecular mass of this complex was calculated to be 53.0 kDa, and the calculated molecular mass of HT-TeCpcS is ˜24.0 kDa.

B1: Bilin lyase CpcS from Thermosynechococcus elongatus BP1 (TeCpcS), His-tagged (enzyme)
chain: MCIGMDIRDFFAQSAGRWFSQRTSHHLAFKQTESGKSQLTIELLSVDDPAVIALCQQYDMDPAWAVCGARVSWDGTMEWDNEKHEGSTVLVPIMDQGSRMEGKLLREMGYAEKAPVAGRFSMGSDGALTLITEYETIYSEERLWFASPNLRLRTSILKRFGGFSMASFCSEIRLGVTQPANS
notes: also called HT-TeCpcS; CpcS-III; not shown: C-terminal His-tag from the pET22c construct used for crystallization and size-exclusion chromatography
As for B1, the binding result is “binds”.
